From publication PMC7907060, “Interaction of Plasmodium falciparum apicortin with α- and β-tubulin is critical for parasite growth and survival” (Scientific Reports, 2021)

Tests used:
[1] = target: T1, recombinant Plasmodium falciparum β-tubulin (Plasmodium falciparum, UniProt Q7KQL5 1-445); assay: SPR; apicortin (12 µM) immobilised by amine coupling on a gold sensor chip; tubulins 100 nM-1 µM injected, 500 s; PBS; Autolab ESPRIT; conditions: both partners purified
T1 construct: Plasmodium falciparum β-tubulin, cloned in pET28a+; also called Pfβ-tubulin

[2] = target: T2, recombinant Plasmodium falciparum α-tubulin-I (Plasmodium falciparum, UniProt Q6ZLZ9 1-453); assay: as above; conditions: both partners purified
T2 construct: Plasmodium falciparum α-tubulin-I, cloned in pET28a+; also called Pfα-tubulin-I

B1: recombinant Plasmodium falciparum apicortin (natural protein, UniProt C0H4E4 1-238, looked up)
chain: MENFDEVIKEYQKYLEGKEKTHKINSCKHPCCEEDNLKSVKNYFKVYHKKYIPSIIQKKKKERNEHAPPLLKDIQDKRCTNVFERLNDKQFYTGVQKTKFMELLKNNKNKSSYCYNNIKVFSTMLKKPCNYVVTPGTLGIQKYGIQTGRPKTIFLFNNEKKYDKGVYFLVKSYIKNIKSLCYEITKILQPSIGPTRKIYDQNFSLVRNVNDLINGGKYLCTSGDPPAPIRNLSLHFLT
notes: Plasmodium falciparum apicortin, cloned in pET28a+; the His tag is surmised from pET28a+ and Ni-NTA; also called PfApicortin
Question: What does the source list for B1?
Answer: Kd [1]: 750 nM; Kd [2]: 120 nM
